This note sets out measurements from patent US20020114805A1.

Assay [1] addresses human lymphotoxin (TNFβ) (human) (UniProt P01374). Briefly: cell-based or functional assay.
Assay [2] has as its target human tumor necrosis factor-α (TNFα) (human) (UniProt P01375). Briefly: cell-based or functional assay.

Chain of human tumor necrosis factor-α (TNFα) (human) (P01375 77-233): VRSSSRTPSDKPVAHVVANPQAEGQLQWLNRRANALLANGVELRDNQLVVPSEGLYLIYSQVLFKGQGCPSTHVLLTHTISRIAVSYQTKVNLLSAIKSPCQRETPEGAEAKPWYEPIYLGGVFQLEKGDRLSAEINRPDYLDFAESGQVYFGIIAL
Chain of human lymphotoxin (TNFβ) (human) (P01374 35-205 limits assumed): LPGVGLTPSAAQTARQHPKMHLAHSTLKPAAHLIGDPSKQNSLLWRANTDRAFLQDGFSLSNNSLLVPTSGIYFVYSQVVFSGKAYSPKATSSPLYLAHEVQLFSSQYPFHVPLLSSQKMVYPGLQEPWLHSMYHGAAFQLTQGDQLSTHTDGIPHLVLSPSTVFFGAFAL

With “p55-sf2 TNF receptor/IgG1 fusion protein (from UniProt P19438) (Fc fusion)”, the amount needed for the same degree of inhibition of TNFβ cytotoxicity, against p75P-sf2 (fold against p75P-sf2) in assay [1] worked out at 3. The same measure, in the same setting: next, “p75-sf2 TNF receptor/IgG1 fusion protein (from UniProt P20333 23-257) (Fc fusion)”: 3. For the molecule “p75P-sf2 TNF receptor/IgG1 fusion protein (from UniProt P20333 23-204) (Fc fusion)”, the concentration to half-inhibit human TNFβ at 2 pM, WEHI 164 cytotoxicity assay in assay [1] turned out to be 31 pM.

B1: chimeric mouse/human IgG1 anti-platelet mAb (7E3) (antibody, INN chains, looked up, V domains shown)
VH: EVQLQQSGTVLARPGASVKMSCEASGYTFTNYWMHWVKQRPGQGLEWIGAIYPGNSDTSYIQKFKGKAKLTAVTSTTSVYMELSSLTNEDSAVYYCTLYDGYYVFAYWGQGTLVTVSA
VL: EIVLTQSPVTLSVTPGDSVSLSCRASRDISNNLHWFQQTSHESPRLLIKYASQSMSGIPSRFSGSGSGTDFTLSINSVETEDFGMYFCQQTNSWPYTFGGGTKLEIK
modifications: chimeric IgG1
In assay [2], B1 showed an IL-6 in supernatant of FS-4 fibroblasts (ng/ml), rhTNF 0.3 ng/ml with 4 µg/ml antibody (no antibody: 1.36) of 1.6 ng/mL; an IL-6 in supernatant of FS-4 fibroblasts (ng/ml), rhTNF 1.5 ng/ml with 4 µg/ml antibody (no antibody: 2.00) of 1.96 ng/mL; an IL-6 in supernatant of FS-4 fibroblasts (ng/ml), rhTNF 7.5 ng/ml with 4 µg/ml antibody (no antibody: 2.56) of 2.16 ng/mL.
